Measured values reported in article PMC8442553 (Science (New York, N.Y.), 2019).

T1: Rsc8 (yeast, UniProt P43609 1-557)
T1 sequence: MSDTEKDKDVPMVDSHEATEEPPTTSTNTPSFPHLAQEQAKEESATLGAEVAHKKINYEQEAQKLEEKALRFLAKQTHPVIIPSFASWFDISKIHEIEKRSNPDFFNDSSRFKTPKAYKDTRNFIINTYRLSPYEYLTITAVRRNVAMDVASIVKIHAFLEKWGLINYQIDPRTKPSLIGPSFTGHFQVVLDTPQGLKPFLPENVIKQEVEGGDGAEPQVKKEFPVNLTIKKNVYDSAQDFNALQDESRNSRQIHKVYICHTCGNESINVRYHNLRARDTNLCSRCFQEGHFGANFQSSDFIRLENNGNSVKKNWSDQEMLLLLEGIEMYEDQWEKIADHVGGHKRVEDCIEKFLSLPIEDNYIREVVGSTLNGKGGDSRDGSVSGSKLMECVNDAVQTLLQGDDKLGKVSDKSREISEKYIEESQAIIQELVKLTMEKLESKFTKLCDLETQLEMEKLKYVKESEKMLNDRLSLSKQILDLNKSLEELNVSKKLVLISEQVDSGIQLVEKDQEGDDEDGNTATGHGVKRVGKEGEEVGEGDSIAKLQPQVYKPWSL

T2: Sth1 (yeast, UniProt P32597 1-1359)
T2 sequence: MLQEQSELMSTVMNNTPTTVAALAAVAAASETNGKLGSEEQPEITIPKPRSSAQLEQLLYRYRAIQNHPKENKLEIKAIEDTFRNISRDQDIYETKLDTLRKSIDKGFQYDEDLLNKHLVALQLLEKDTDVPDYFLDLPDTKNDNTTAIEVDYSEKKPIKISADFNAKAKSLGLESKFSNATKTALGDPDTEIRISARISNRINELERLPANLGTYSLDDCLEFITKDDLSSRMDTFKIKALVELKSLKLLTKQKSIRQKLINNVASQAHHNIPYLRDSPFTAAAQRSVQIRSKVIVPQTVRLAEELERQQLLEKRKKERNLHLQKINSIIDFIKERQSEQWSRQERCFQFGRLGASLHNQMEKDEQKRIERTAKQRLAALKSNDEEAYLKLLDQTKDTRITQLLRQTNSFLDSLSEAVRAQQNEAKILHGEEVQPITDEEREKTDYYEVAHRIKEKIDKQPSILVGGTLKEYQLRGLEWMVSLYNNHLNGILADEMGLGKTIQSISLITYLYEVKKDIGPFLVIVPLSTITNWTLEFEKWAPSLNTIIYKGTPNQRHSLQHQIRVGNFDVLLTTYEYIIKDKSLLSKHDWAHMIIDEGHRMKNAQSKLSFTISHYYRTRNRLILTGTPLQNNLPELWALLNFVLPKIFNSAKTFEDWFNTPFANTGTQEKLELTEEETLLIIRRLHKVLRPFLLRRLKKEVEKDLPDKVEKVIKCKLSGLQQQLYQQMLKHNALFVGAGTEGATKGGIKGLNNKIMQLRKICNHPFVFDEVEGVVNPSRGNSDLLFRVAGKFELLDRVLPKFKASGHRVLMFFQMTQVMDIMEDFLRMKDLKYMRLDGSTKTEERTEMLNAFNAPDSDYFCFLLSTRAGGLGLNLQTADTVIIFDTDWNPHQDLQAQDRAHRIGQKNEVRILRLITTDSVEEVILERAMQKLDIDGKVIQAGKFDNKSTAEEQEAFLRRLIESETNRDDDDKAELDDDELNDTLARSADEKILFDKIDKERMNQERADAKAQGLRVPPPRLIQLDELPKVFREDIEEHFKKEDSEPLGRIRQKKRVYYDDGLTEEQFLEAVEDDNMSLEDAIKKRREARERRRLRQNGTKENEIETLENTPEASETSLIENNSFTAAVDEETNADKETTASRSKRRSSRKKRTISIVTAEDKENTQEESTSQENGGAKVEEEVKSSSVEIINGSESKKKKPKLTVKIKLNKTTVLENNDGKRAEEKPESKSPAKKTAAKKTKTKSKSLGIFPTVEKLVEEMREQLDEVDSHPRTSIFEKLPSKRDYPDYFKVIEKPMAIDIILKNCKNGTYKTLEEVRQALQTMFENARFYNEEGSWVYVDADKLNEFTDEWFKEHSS

B1: Rsc7 (natural protein, yeast)
chain: MSDSEGGLASEVEHEKRSRSTSNRPNYAIDTEDLDIDENDENEDDDYREEEANEGVNEEEISDEEEQINKSGRNKRRHVDEEEDLSEDKGVTRSRNRSKFKKPVFPGIDDAEENLNPLKVVNEEYVLPDDPEGETKITADGDLLGGREFLVRTFTLTEKGNRKFMLATEPARIVGFRDSYLFFQTHPNLYKFILNQTQKNDLIDRGVLPYSYRNRQIALVTARGVFKEFGAKIIRGGKHITDDYYASELRTKGNVIEGKLAGDPIDKSARALETMMYPASENGINPAKNQVEFFEHRPHGHMSNSNIIASGSKLSSTNWLYQHSAACSRFNSDLFYDRVKVLLVDQQGLRDAYTNILHIPESTQSTTVLGWRRSKNDSPSDTSIVYETVIHDNDLNKPKTGLSEIPKEIYEDVVDEDVLRAITEQQNFEKCNEYI
B2: Rsc58 (natural protein, yeast)
chain: MTESVGGNKLVDFLVNVQSILNAASVKCHVVDESFPAKFFEKNPDKIYESYCKFIKNRSNSEGLIRNEDKLVLTTINKRFENGEYEPIQGGFYKLYHDIKLVCTILIHFYPQGTRNYQLVDKFYKFSSELLLRECCRIGIALTQTNNIKSRSGKLLSGNEMDEYDDDDATELDKIISYDFIKISMNYTVPISQTYQIRTKDMDLFSSIISKSNLDKRPHELPNTNFKINNVLPQTDIENEAPRLGFVGANTSNIPDPTLPPTEMMTRFLHPNWYALPTTVWLKYGNYNSWAPSFNENGTVVDSTTRGLIWLERIGYMDLYEKNEKKVKQEELLNTNEEGINRKQNDENNKNVDGKSNGVQDDGGDNDNDATIASANSESTENKEQFIIKLQNLYNWTPSNYIGDDEIENFRNGTPDKLVSDSLLKLKRLRKERILNKVLKPTTEERELYFKVKRILKEVILAKKVSKVPINNVRAFPVLQTNYNGSIPVVRAQPGRKRKHKK
B3: Htl1 (natural protein, yeast)
chain: MSQNNTISSMNPERAYNNVTLKNLTAFQLLSQRENICELLNLVESTERHNSIINPERQRMSLEEMKKMLDALKNERKK
B4: Arp7 (natural protein, yeast)
chain: MTLNRKCVVIHNGSHRTVAGFSNVELPQCIIPSSYIKRTDEGGEAEFIFGTYNMIDAAAEKRNGDEVYTLVDSQGLPYNWDALEMQWRYLYDTQLKVSPEELPLVITMPATNGKPDMAILERYYELAFDKLNVPVFQIVIEPLAIALSMGKSSAFVIDIGASGCNVTPIIDGIVVKNAVVRSKFGGDFLDFQVHERLAPLIKEENDMENMADEQKRSTDVWYEASTWIQQFKSTMLQVSEKDLFELERYYKEQADIYAKQQEQLKQMDQQLQYTALTGSPNNPLVQKKNFLFKPLNKTLTLDLKECYQFAEYLFKPQLISDKFSPEDGLGPLMAKSVKKAGASINSMKANTSTNPNGLGTSHINTNVGDNNSTASSSNISPEQVYSLLLTNVIITGSTSLIEGMEQRIIKELSIRFPQYKLTTFANQVMMDRKIQGWLGALTMANLPSWSLGKWYSKEDYETLKRDRKQSQATNATN
B5: Arp9 (natural protein, yeast)
chain: MAPFRQDSILIIYPRSQTTLVQFGLNEETFTVPELEIPTQIYRTTRQDGSYTYHSTNKDNKAELIKPIQNGEIIDISAFTQFLRLIFVSILSDRANKNQDAFEAELSNIPLLLITHHSWSQSDLEIITQYVFESLEINNLIQLPASLAATYSMISLQNCCIIDVGTHHTDIIPIVDYAQLDHLVSSIPMGGQSINDSLKKLLPQWDDDQIESLKKSPIFEVLSDDAKKLSSFDFGNENEDEDEGTLNVAEIITSGRDTREVLEERERGQKVKNVKNSDLEFNTFWDEKGNEIKVGKQRFQGCNNLIKNISNRVGLTLDNIDDINKAKAVWENIIIVGGTTSISGFKEALLGQLLKDHLIIEPEEEKSKREEEAKSVLPAATKKKSKFMTNSTAFVPTIEYVQCPTVIKLAKYPDYFPEWKKSGYSEIIFLGAQIVSKQIFTHPKDTFYITREKYNMKGPAALWDVQF
B6: Rtt102 (natural protein, yeast)
chain: MDPQTLITKANKVSYYGNPTSKESWRYDWYQPSKVSSNVQQPQQQLGDMENNLEKYPFRYKTWLRNQEDEKNLQRESCEDILDLKEFDRRILKKSLMTSHTKGDTSKATGAPSANQGDEALSVDDIRGAVGNSEAIPGLSAGVNNDNTKESKDVKMN

target: T1, Rsc8; experiment: cryo-EM structure

Binding result, binds:
B1
B2
B3

target: T2, Sth1; experiment: cryo-EM structure

Binding result, binds:
B2
B4
B5
B6
